Results published in patent publication US20190002886A1, “SIGNALING CENTERS OF ERYTHROID DIFFERENTIATION” (THE CHILDREN'S MEDICAL CENTER CORPORATION, priority 2017, published 2019).

Tested on: human CD34+ cells
Experiment: FACS analysis of erythroid markers CD71 and CD235a on differentiating CD34+ cells
Type: cell-based
Details: 25 ng/ml hrBMP4, treated for two days starting from D3 of differentiation
Method: To establish the role of BMP signaling in erythroid differentiation, differentiating CD34^+ cells were treated with human recombinant BMP4 (hrBMP4) to activate the pathway, or with dorsomorphin, a known inhibitor of BMP signaling. Knowing that erythroid lineage commitment occurs around D3, differentiating cells were treated for two days starting from D3, to test the effects of these signals on erythrocyte commitment. […] Human CD34+ cells, isolated from peripheral blood of granulocyte colony-stimulating factor-mobilized healthy volunteers, were obtained from the Fred Hutchinson Cancer Research Center. The cells were maintained and differentiated as previously described (Sankaran et al., 2008b; Trompouki et al.,2011). Control and treated stage-matched CD34 cells were washed in PBS and stained with propidium iodide (PI), 1:60 APC-conjugated CD235a (eBioscience, clone HIR2, 17-9987-42), 1:60 FITC-conjugated CD71 (eBioscience, OKT9, 11-0719-42), 1:60 PE-conjugated CD41a (eBioscience, HIP8, 12-0419-42) and 1:60 PE-conjugated CD11b (eBioscience, ICRF44, 12-0118-42). BD Bioscience LSR II flow cytometer was used to record raw FACS data, which were analyzed subsequently using FlowJo 8.6.9 10.0.7 (TreeStar). Human CD34^+ cells, isolated from peripheral blood of granulocyte colony-stimulating factor mobilized healthy volunteers, were purchased from the Fred Hutchinson Cancer Research Center. […]

B1: BMP4: human recombinant BMP4 (R&D) used to activate the BMP pathway (protein)
chain: MIPGNRMLMVVLLCQVLLGGASHASLIPETGKKKVAEIQGHAGGRRSGQSHELLRDFEATLLQMFGLRRRPQPSKSAVIPDYMRDLYRLQSGEEEEEQIHSTGLEYPERPASRANTVRSFHHEEHLENIPGTSENSAFRFLFNLSSIPENEVISSAELRLFREQVDQGPDWERGFHRINIYEVMKPPAEVVPGHLITRLLDTRLVHHNVTRWETFDVSPAVLRWTREKQPNYGLAIEVTHLHQTRTHQGQHVRISRSLPQGSGNWAQLRPLLVTFGHDGRGHALTRRRRAKRSPKHHSQRARKKNKNCRRHSLYVDFSDVGWNDWIVAPPGYQAFYCHGDCPFPLADHLNSTNHAIVQTLVNSVNSSIPKACCVPTELSAISMLYLDEYDKVVLKNYQEMVVEGCGCR
With B1 the “increase in erythroid cell counts (CD71 and CD235a)” value was 1.5-2 fold.
